Data as given in the nanobody polyreactivity screen of Harvey et al. (2022).

Assay: yeast display, Sf9 membrane polyspecificity reagent, FACS + sequencing; frameworks hold sequencing errors
Summary of the method: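 Sorting gates, low and high (top ~1%), were placed on anti-HA fluorescence to track expression and on streptavidin fluorescence to track reagent binding. A clone's polyreactivity label is taken from the gate it came out of. The reagent was 10% biotinylated, detergent-solubilized Sf9 membrane, applied for 1 hour at 4 °C to galactose-induced yeast display cells.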

Row | Sequence | polyreactivity (PSR sort gate)
1 | QVQLVESGGGLVQAGGSLRLSCAASGRTFGYYAMGWYRPAPGKEGELVAVITWSGDSTYYADSVKGRFTISRDNAKNTVYLQMNSLKPEDTAVYYCNADSGNAGTAYDDYDYWGQGTQVTVSS | low polyreactivity
2 | QVQLVESGGGLVQAGGSLRLSCAASGRTFGYYAMGWYRPAPGKERELVAAISSNTDSTYYADSVKGRFTISRDNAKNTVYLQMNSLKPEDTAVYYCAAEAYSYYPGTYEDDYWGQGTQVTVSS | low polyreactivity
3 | QVQLVESGGGLVQAGGSLRLSCAASGRTFGYYAMGWYRQAPGKERELFDAITGRTSRTYYADSVKGRFTISRDNAKNTVYLQMNSLKPEDTAVYYCAARYTRWRYNYKDYDYWGQGTQVTVSS | high polyreactivity
4 | QVQLVESGGGLVQAGGSLRLSCAASGRTFGYYAMGWYRQAPGKERELVAAIRSTGSTNYADSVKGRFTISRDNAKNTVYLQMNSLKPDDTAVYYCNADPWWRFDYWGQGTQVTVSS | low polyreactivity
5 | QVQLVESGGGLVQAGGSLRLSCAASGRTFGYYAMGWYRQAPGKERELVAAISGNGDNTYYADSVKGRFTISRDNAKNTVYLQMNCLIPEDTAVYYCSLWYRYKYAPYRLHGYWGQGTQVTVSS | high polyreactivity
6 | QVQLVESGGGLVQAGGSLRLSCAASGRTFGYYAMGWYRQAPGKERELVAAITLSGGSTYYADSVKGRFTISRDNAKNTVYLQMNSLKPEDTAVYYCAAKWWHFYPYDYWGQGTQVTVSS | high polyreactivity
7 | QVQLVESGGGLVQAGGSLRLSCAASGRTFGYYAMGWYRQAPGKERELVAGIRSSGGSTYYADSVKGRFTISRDNAKNTVYLQMNSLKAEDTAVYYCAARLRSYNYRYGYDYWGQGTQVTVSS | high polyreactivity
8 | QVQLVESGGGLVQAGGSLRLSCAASGRTFGYYAMGWYRQAPGKERELVAPISWSGANTYYADSVKGRFTISRDNAKNTVYLQMNSLKPEDTAVYYCAAVRYYSYAYSIRYGYWGQGTQVTVSS | high polyreactivity
9 | QVQLVESGGGLVQAGGSLRLSCAASGRTFGYYTMGWYRQAPGKEWELVATIRWSGGSTYADSVKGRFTISRDNAKNTVYLQLNSLKPEDTAVYYCYVDPSYYKILFNGFYYWGQGTQVTVSS | high polyreactivity
10 | QVQLVESGGGLVQAGGSLRLSCAASGRTFGYYTMGWYRQSPGKERELVATISSDGTTNYADSVKGRFTISRDNAKNTVYLQMNSLKPEDTAVYYCNADFRLQYYYRIYDYWGQGTQVTVSS | low polyreactivity
11 | QVQLVESGGGLVQAGGSLRLSCAASGRTFHAYVMGWYRQAPGKERELVADISSGGDTYADSVKGRFTISRDNAKNTVYLQMNSLKPEDTAVYYCAVDLIQDESRYWGQGTQVTVSS | low polyreactivity
12 | QVQLVESGGGLVQAGGSLRLSCAASGRTFHRYAMGWYRQAPGKERELVATISRGGSTNYADSVKGRFTISRDNAQTTVYLQRNSLKTEETAVYYCAREYYGSWDSGGGGYWGQGTQVTVAS | high polyreactivity
13 | QVQLVESGGGLVQAGGSLRLSCAASGRTFHSYAMGWYRPAPGKETELVAGISWGGTRTTYADSVTGRFTISRDNAKNTVYLQMNSLKPEDTAVYYCNAVYYALGRSPPDYGYWGQGTQVTVSS | low polyreactivity
14 | QVQLVESGGGLVQAGGSLRLSCAASGRTFHWYTMGWYRLAPGKERELVAAISWSGTTTYYADSVKGRFTISRDNAKNTVYVQMNSLKPEDTAVYYCAFPTYNHNPVSAMTYYYWGQGTQVTVSS | low polyreactivity
15 | QVQLVESGGGLVQAGGSLRLSCAASGRTFHYNVMGWYRQAPGKESELVAASTNTGGSTYYADSVKGRFTISRDNAKNTVYLQMNSLKPEDTAVYYCAAVIWGRRYGAYPYEYWGQGTQVTVSS | low polyreactivity
16 | QVQLVESGGGLVQAGGSLRLSCAASGRTFHYYAMGWYRQAPGKERELVAAINFSGDNTYYADSVKGRFTISRDNAKNTVYLQLNSLKPEDTAVYYCAARREYARYKGYYYWGQGTQVTVSS | low polyreactivity
17 | QVQLVESGGGLVQAGGSLRLSCAASGRTFHYYAMVWYRQAPWKERELVAGITAGGSTYYADSVKGRFTISRDNAKNTVYLLMNSLKPEDNSGYYCAADRSYYGYGYWGKGTQVTVSS | low polyreactivity
18 | QVQLVESGGGLVQAGGSLRLSCAASGRTFIFYAMGWYRQAPGKERELVAAISSSGSGTYYADSVKGRFTISRDNAKNTVYFQMNSLKPEDTAVYYCAADVVNSRRRPKYGYWGQGTQVTVSS | low polyreactivity
19 | QVQLVESGGGLVQAGGSLRLSCAASGRTFIFYAMGWYRQAPGKERELVAAITYSGTSTYYADSVKGRFTISRDNAKNTVYLQMNSLKPEDTAVYYCASRPTPYRDDADEYWGQGTQVTVSS | low polyreactivity
20 | QVQLVESGGGLVQAGGSLRLSCAASGRTFIGNAMGWYRQAPGKERELVAGIDSDGSTNYADSVKGRFTISRDNAKNTVYLLMNSLKPEDTAVYYCAAVQGYRFYEYYYWGQGTQVTVSW | low polyreactivity
21 | QVQLVESGGGLVQAGGSLRLSCAASGRTFIGNAMGWYRQAPGKERELVAGISYRGGSTYYADSVKGRFTISRDNAKNTVYLQMNSLKPEDTAVYYCAAPGRGGYYYWGQGTQVTVSS | high polyreactivity
22 | QVQLVESGGGLVQAGGSLRLSCAASGRTFIGYAMGWYIQAPGKERELVAAISPGGSTKYADSVKGRFTISRDNAKNTVYLQMNILKPEDTAVYYCNAYSQSWNFYGDGDYWGQGTQVTVSS | low polyreactivity

Row | Sequence | polyreactivity (PSR sort gate)
23 | QVQLVESGGGLVQAGGSLRLSCAASGRTFIGYAMGWYRPAPGKERELVAGISWSGGSTYYADSVKGRFTISRDNAKNPVSLQMNSLKPEDTAVYYCAARGRWSTEYGYWGQGTQVTVSS | low polyreactivity
24 | QVQLVESGGGLVQAGGSLRLSCAASGRTFIHYAMGWSRQAPGKERELVAAISRRGGSTYYADSVKGRFTISRDNAKNTVYLQMNSLKPEDTAVYYCAARLLGITGRTDSGAEGDYWGQGTQVTVSS | high polyreactivity
25 | QVQLVESGGGLVQAGGSLRLSCAASGRTFIINTMGWSRQATGTERELVAAISKNGATTNYADSVKGRFTISRDNAKNTVYLQMNSLKPEDTAVYYCNARYSGYLRLDYWGQGTQVTVSS | low polyreactivity
26 | QVQLVESGGGLVQAGGSLRLSCAASGRTFIINTMGWYRQAPGKERELVAAISKNGATTNYADSVKGRFTISRDNAKNTVYLQMNSLKPEDTAVYYCAKKASYWWGYEYWGQGTQVTVSS | low polyreactivity
27 | QVQLVESGGGLVQAGGSLRLSCAASGRTFIPYAMAWYRQAPGKEMELVAAISTTAGTTYYADSVKGRFTISRDNAKNTVYLQMNSLKPEDTAVYYCAAEGYGSFFVAMDYWGQGTQVTVSS | high polyreactivity
28 | QVQLVESGGGLVQAGGSLRLSCAASGRTFIRYTMGWYRPAPGKERELVAAITSTGRTYYADSVKGRFTISRDNAKNTVYLQMNSLKPEDTAVYYCAAKQSWEGYDYWGQGTQVTVSS | low polyreactivity
29 | QVQLVESGGGLVQAGGSLRLSCAASGRTFISNAMGWYRQAPGKERELVATINSGGSTNYADSVKGRFTISRDNAKNTVYLQMNSLKPEDTAVYYCARRVRYKHYDYWGQGTQVTVSS | high polyreactivity
30 | QVQLVESGGGLVQAGGSLRLSCAASGRTFISNAMGWYRQAPVKERELVAAISRSGGSTYYADSVKGRFTISRDNAKNTVYLQMNSLKPEDTAVYYCAATGKQWRTSYDYWGQGTQVTVSS | high polyreactivity
31 | QVQLVESGGGLVQAGGSLRLSCAASGRTFISYAMGWYRQAPGKERELVAAISWSGGRTSYADSVKGRFTISRDNAKNTVYLHMNSLKPEDTAVYYCNAQYNSWFAIKDYDYWGQGTQVTVSS | low polyreactivity
32 | QVQLVESGGGLVQAGGSLRLSCAASGRTFISYAMGWYRQAPGKESELVAAISSSGGSTYYADSVKGRFTISRDNAKNTVYLQMNSLKPEDTEVYYCNAAKVRRDPAWRLLDYWGQGTQVTVSS | low polyreactivity
33 | QVQLVESGGGLVQAGGSLRLSCAASGRTFITYAMGWYRQAPGKERELVAAISSGGGRTYYADSVKGRFTISRDNAKNTVYLQMNSLKPEDTAVYYCAALYVYPLTYKPSRYPYDYWGQGTQVTVSS | high polyreactivity
34 | QVQLVESGGGLVQAGGSLRLSCAASGRTFIVNAMAWYRQAPGKERELVAAISSGGSTNYADSVKGRFTISRDNAKNTVYLQMNSLKPEDTAVYYCASRLRGPRSYWSWYGYWGQGTQVTVSS | high polyreactivity
35 | QVQLVESGGGLVQAGGSLRLSCAASGRTFIVNAMGWYRQAPGKVRELVAAITKGARTYYADSVKGRFTISRDNAKNTVYLQRNSLKPEDTAVYYCNATRLGGNGTRHYYWGQGTQVTVSS | high polyreactivity
36 | QVQLVESGGGLVQAGGSLRLSCAASGRTFIVYAMGWYRQAPGTERELVAGITRGSTTYADSVKGRFTISRDNATNTVYLQMNSLKPEDTAVYYCAARSSRRGPISEGDYWGQGTHVTVSS | high polyreactivity
37 | QVQLVESGGGLVQAGGSLRLSCAASGRTFKFYAMGWYRQAPGKERELVATITSGGSTYYADSVKGRFTISRDNAKNTVYLQMNSLIPEDTAVSYCNAAKTYPDVYEYDYWGQGTQVTVSS | high polyreactivity
38 | QVQLVESGGGLVQAGGSLRLSCAASGRTFKGYTMGWYRQAPGKERELVAAITRSGGGTYYADSVKGRFTISRDNAKNTVYLQMNSLKPEDTAVYYCAARRPGYYYPSKFDYWGQGTQVTVSS | high polyreactivity
39 | QVQLVESGGGLVQAGGSLRLSCAASGRTFKGYTMGWYRQAPGKERELVAVITWSGDRTYYADSVKGRFTISRDNAKNTVYLQMNSLKPEDTAVYYCAARGYSLRTRGDYWGQGTQVTVSS | high polyreactivity
40 | QVQLVESGGGLVQAGGSLRLSCAASGRTFKIYAMGWYRQAPGKERELVAAITWNGDSTHYADSVKGRFTISRDNAKNTVYLQMNSLKPEDTAVYYCNRVGYQSMNYWGQGTQVTVSS | low polyreactivity
41 | QVQLVESGGGLVQAGGSLRLSCAASGRTFKKNAMGWYRQAPGKERELVAAITGSGGSTYYADSVKGRFTISRDNAKKTVYLQMNSLKPEDTAVYYCAAYAYGVWHSQDCGNYWGQGTQVTVSS | low polyreactivity
42 | QVQLVESGGGLVQAGGSLRLSCAASGRTFKKYAMGWYRPAPRKERELVAAITGSGGSTYYADSVKGRFTISRDNAKNTVYLQMNSLKPEDTAVYYCAAYAYGVWHSQDGGNYWGQGTQVTVSS | low polyreactivity
43 | QVQLVESGGGLVQAGGSLRLSCAASGRTFKLNAMGWYRKAPGKERELVAGITRTGDSTYYADSVKGRFTISRDNAKNTVYLQMNSLKPEDTAVYYCAAAEWYSMDYWGQGTQVTVSS | low polyreactivity
